Data: patent publication US20110008350A1 (published 2011)

T1: Integrin alpha-3 (mouse, UniProt Q62470 33-1053, limits assumed)
T1 construct: also called Itga3; α3β1 integrin (alpha chain)
T1 sequence (looked up): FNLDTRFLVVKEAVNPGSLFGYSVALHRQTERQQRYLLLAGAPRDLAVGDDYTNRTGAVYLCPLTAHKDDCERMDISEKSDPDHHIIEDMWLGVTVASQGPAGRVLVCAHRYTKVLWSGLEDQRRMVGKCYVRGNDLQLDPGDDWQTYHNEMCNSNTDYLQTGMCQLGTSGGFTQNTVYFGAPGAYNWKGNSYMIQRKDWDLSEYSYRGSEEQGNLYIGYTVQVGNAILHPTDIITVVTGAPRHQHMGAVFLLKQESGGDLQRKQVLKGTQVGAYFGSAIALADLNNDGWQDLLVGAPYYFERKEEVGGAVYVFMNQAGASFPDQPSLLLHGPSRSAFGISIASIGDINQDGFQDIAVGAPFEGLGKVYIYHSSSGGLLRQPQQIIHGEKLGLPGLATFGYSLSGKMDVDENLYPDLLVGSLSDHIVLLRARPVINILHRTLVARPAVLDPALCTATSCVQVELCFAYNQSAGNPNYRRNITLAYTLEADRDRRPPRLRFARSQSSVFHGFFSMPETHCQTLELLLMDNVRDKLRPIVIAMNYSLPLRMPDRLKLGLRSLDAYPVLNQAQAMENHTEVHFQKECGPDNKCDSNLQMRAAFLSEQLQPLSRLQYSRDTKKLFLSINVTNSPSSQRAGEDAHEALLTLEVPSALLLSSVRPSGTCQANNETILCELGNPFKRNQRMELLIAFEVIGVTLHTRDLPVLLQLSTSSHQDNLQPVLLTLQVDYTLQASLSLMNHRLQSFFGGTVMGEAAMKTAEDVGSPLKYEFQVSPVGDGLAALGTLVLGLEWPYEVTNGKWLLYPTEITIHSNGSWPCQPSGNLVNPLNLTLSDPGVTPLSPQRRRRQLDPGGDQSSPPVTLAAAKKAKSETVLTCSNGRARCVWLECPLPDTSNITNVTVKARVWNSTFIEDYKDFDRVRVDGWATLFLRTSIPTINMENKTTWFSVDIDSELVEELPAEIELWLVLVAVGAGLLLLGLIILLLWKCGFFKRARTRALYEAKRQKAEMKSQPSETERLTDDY

T2: PGRL/EWI-2 (endogenous, MEF cells) (mouse, UniProt Q8R366 26-611)
T2 construct: also called Igsf8
T2 sequence (looked up): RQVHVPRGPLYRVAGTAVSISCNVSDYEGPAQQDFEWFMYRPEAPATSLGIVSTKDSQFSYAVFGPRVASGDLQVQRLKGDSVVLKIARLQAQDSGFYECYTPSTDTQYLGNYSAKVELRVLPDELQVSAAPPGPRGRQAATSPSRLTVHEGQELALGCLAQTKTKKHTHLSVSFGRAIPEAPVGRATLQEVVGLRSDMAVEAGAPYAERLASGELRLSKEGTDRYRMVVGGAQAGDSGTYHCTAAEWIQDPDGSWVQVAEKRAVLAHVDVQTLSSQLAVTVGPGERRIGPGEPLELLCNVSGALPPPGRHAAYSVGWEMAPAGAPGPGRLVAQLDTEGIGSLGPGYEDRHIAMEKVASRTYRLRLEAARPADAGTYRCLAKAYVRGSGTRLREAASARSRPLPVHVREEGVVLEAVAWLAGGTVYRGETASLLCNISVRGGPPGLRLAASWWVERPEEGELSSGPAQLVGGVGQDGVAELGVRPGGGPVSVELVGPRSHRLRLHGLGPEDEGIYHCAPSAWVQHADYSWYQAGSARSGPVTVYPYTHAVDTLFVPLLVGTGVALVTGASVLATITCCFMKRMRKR

B1: dTag PSH1 (double-tagged human Presenilin homolog 1) (other, UniProt Q8TCT6 1-384, looked up, not shown: small tags and cut ends)
chain: MAEQTYSWAYSLVDSSQVSTFLISILLIVYGSFRSLNMDFENQDKEKDSNSSSGSFNGNSTNNSIQTIDSTQALFLPIGASVSLLVMFFFFDSVQVVFTICTAVLATIAFAFLLLPMCQYLTRPCSPQNKISFGCCGRFTAAELLSFSLSVMLVLIWVLTGHWLLMDALAMGLCVAMIAFVRLPSLKVSCLLLSGLLIYDVFWVFFSAYIFNSNVMVKVATQPADNPLDVLSRKLHLGPNVGRDVPRLSLPGKLVFPSSTGSHFSMLGIGDIVMPGLLLCFVLRYDNYKKQASGDSCGAPGPANISGRMQKVSYFHCTLIGYFVGLLTATVASRIHRAAQPALLYLVPFTLLPLLTMAYLKGDLRRMWSEPFHSKSSSSRFLEV
notes: Control bait, stably expressed in PS dKO MEF cells; also called dTag SPPL3; SPP-like protease 3

What was measured:
[1] = target: T3, Integrin beta-1 (mouse, UniProt P09055 21-798); assay: TAP-tag purification from MEF membranes, LC-MS/MS
T3 construct: also called Itgb1; α3β1 integrin (beta chain)
Method: (§1) Harvested MEF cells were re-suspended in STE buffer (5 mM Tris-HCl pH 7.4, 250 mM sucrose, 1 mM EGTA) supplemented with the Complete protease inhibitors. The cells were lysed by being passed ten times through a ball-bearing cell cracker followed by removal of the nuclei and cell debris by centrifugation at 800×g for ten minutes at 4° C. The supernatant was further centrifuged at 100,000×g for 60 minutes at 4° C. The microsomal membrane pellet was re-suspended in the solubilization buffer (HEPES buffer; 50 mM HEPES pH 7.2, 150 mM NaCl with 1% 3-[(3-Cholamidopropyl)dimethylammonio]-2-hydroxy-1-propanesulfonate (CHAPSO, Calbiochem) or 0.5% 3-[(3-Cholamidopropyl) dimethylammonio]-1-propanesulfonate (CHAPS, Calbiochem)) supplemented with the Complete protease inhibitors and was solubilized at 4° C. for three hours. After centrifugation at 100,000×g for 60 minutes at 4° C., the supernatant was saved and protein concentration was determined. The solubilized membranes were applied on pre-equilibrated anti-FLAG M2 affinity gel (Sigma). The gel was washed with the solubilization buffer and bound proteins were eluted with solubilization buffer with 20 μg/ml of FLAG peptides (Sigma). […] After washing, the bound proteins were eluted with 5 mM EGTA.

[2] = target: T1, Integrin alpha-3; assay: TAP-tag purification from MEF membranes, LC-MS/MS
Method: as §1

[3] = target: T2, PGRL/EWI-2 (endogenous, MEF cells); assay: TAP-tag purification from MEF membranes, LC-MS/MS
Method: as §1

[4] = target: T4, Nicastrin (endogenous, MEF cells) (mouse, UniProt P57716 28-708); assay: TAP-tag purification from MEF membranes, Western blot
T4 construct: also called NCT

[5] = target: B1; assay: TAP-tag purification from MEF membranes, LC-MS/MS
Method: as §1

binding result [1] | binding result [2] | binding result [3] | binding result [4] | binding result [5] | Binder
no binding | no binding | no binding | no binding | – | B1
– | – | – | – | no binding | CD81/TAPA-1 (endogenous, MEF cells) (other, mouse, UniProt P35762 1-236, looked up) MGVEGCTKCIKYLLFVFNFVFWLAGGVILGVALWLRHDPQTTSLLYLELGNKPAPNTFYVGIYILIAVGAVMMFVGFLGCYGAIQESQCLLGTFFTCLVILFACEVAAGIWGFVNKDQIAKDVKQFYDQALQQAVMDDDANNAKAVVKTFHETLNCCGSNALTTLTTTILRNSLCPSGGNILTPLLQQDCHQKIDELFSGKLYLIGIAAIVVAVIMIFEMILSMVLCCGIRNSSVY
